Values quoted from earlier work in paper PMC5472698.

Target: CD21 (Homo sapiens) (UniProt P20023)
Sequence (P20023 21-1033): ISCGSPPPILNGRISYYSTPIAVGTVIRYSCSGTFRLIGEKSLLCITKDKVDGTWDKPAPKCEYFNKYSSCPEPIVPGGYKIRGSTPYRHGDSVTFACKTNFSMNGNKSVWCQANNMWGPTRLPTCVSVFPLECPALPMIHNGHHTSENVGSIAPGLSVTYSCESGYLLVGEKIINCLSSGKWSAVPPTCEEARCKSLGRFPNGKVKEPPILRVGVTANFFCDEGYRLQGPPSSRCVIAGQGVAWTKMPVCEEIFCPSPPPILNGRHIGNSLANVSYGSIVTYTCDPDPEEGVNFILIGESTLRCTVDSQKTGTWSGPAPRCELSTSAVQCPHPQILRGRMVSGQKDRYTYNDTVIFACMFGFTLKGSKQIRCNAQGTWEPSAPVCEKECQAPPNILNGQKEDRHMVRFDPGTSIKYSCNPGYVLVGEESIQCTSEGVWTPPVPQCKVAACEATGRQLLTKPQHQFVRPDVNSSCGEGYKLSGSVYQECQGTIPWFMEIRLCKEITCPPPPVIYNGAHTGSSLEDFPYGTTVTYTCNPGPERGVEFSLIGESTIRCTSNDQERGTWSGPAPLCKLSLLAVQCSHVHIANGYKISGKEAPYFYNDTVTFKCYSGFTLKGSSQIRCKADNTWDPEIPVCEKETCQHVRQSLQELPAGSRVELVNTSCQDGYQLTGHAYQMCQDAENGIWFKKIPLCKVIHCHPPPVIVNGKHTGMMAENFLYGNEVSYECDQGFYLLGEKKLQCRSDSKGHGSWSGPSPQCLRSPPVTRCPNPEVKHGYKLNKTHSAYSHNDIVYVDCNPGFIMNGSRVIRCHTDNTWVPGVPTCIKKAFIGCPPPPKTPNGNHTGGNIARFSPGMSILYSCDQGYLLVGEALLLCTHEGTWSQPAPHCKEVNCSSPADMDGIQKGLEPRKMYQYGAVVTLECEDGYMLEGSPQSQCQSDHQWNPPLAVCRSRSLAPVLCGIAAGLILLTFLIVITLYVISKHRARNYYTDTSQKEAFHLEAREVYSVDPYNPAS

gp350/220, sequence (P03200 whole entry): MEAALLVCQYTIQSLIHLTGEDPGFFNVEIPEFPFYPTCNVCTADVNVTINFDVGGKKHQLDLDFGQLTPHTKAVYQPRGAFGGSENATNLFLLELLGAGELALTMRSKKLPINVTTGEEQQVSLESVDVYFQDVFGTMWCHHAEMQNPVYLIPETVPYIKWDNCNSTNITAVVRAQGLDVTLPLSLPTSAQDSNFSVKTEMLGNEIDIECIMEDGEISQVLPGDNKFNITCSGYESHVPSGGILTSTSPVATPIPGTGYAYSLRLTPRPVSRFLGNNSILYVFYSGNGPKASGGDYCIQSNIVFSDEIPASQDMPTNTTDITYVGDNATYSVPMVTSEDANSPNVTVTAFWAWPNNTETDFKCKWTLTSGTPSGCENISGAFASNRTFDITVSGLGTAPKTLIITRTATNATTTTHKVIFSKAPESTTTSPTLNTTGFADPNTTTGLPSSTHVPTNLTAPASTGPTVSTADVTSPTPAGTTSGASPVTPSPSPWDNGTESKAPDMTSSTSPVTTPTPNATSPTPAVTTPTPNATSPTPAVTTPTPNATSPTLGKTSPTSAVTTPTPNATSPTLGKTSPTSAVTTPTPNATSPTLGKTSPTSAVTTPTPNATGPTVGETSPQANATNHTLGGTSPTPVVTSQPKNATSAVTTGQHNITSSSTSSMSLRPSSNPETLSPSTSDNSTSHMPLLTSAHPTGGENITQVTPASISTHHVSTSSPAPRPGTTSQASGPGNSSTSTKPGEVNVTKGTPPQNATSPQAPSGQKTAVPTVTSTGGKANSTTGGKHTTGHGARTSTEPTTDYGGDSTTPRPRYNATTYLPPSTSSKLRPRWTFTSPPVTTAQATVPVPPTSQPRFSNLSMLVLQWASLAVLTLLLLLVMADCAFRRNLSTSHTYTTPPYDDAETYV

gp350/220 (from UniProt P03200)
Kd: 12 nM
